# Measured values reported in patent US20040214349A1 (MURDOCH CHILDRENS RESEARCH INSTITUTE ROYAL CHILDREN S …, published 2004).
# Molecular target: the molecule itself
# Assay: non-reducing SDS-PAGE of immunoprecipitated His-WARP
protein,measurement,value
"His-tagged full-length mouse WARP expressed in 293-EBNA cells (other, N-linked oligosaccharide (one or more; candidate sites Asn264 and Asn359), also called His-WARP; WARP-His) RSSHHHHHHIERGSTASDPQGDLLFLLDSSASVSHYEFSRVREFVGQLVATMSFGPGALRASLVHVGSQPHTEFTFDQYSSGQAIRDAIRVAPQRMGDTNTGLALAYAKEQLFAEEAGARPGVPKVLVWVTDGGSSDPVGPPMQELKDLGVTIFIVSTGRGNLLELLAAASAPAEKHLHFVDVDDLPIIARELRGSITDAMQPQQLHASEVLSSGFRLSWPPLLTADSGYYVLELVPSGKLATTRRQQLPGNATSWTWTDLDPDTDYEVSLLPESNVHLLRPQHVRVRTLQEEAGPERIVISHARPRSLRVSWAPALGPDSALGYHVQLGPLQGGSLERVEVPAGQNSTTVQGLTPCTTYLVTVTAAFRSGRQRALSAKACTASGARTRAPQSMRPEAGPREP",binding result,binds
